# Experimental data published in patent publication US20150104808A1 (Janssen / Centocor, published 2015).
# Substitutions are numbered along the chain they refer to.
# B1: ECB147v3-PEG24 (designed binder)
# chain: LPAPKNLVVSEVTEDSARLSWDDPWAFYESFLIQYQESEKVGEAIVLTVPGSERSYDLTGLCPGTEYTVSIYGVHNVYKDTNMRGLPLSAIFTTAPCPAPAPAPLPAPKNLVVSRVTEDSARLSWTAPDAAFDSFWIRYFEFLGSGEAIVLTVPGSERSYDLTGLCPGTEYVVNIMSVKGGSISPPLSAIFTTAPCPAPAPAPLAEAKVLANRELDKYGVSDYYKNLINNAKTVEGVKALLDEILAALP
# modifications: PEG24-maleimide on the engineered cysteines
# B2: ECB147v6-PEG24 (designed binder)
# chain: B1 chain with C97A, C166K, C196A
# modifications: PEG24-maleimide on the engineered cysteine
# B3: ECB147v5-PEG24 (designed binder)
# chain: B1 chain with C97A, C196A
# modifications: PEG24-maleimide on the engineered cysteines
# B4: ECB147v7-PEG24 (designed binder)
# chain: B1 chain with C62K, C166K
# modifications: PEG24-maleimide on the engineered cysteines
# B5: ECB38 (designed binder)
# chain: MLPAPKNLVVSEVTEDSARLSWDDPWAFYESFLIQYQESEKVGEAIVLTVPGSERSYDLTGLKPGTEYTVSIYGVHNVYKDTNMRGLPLSAIFTTAPAPAPAPAPLPAPKNLVVSRVTEDSARLSWTAPDAAFDSFWIRYFEFLGSGEAIVLTVPGSERSYDLTGLKPGTEYVVNIMGVKGGKISPPLSAIFTTAPAPAPAPAPLAEAKVLANRELDKYGVSDYYKNLINNAKTVEGVKALLDEILAALP
# B6: P54CR4-31 (designed binder, not shown: small tags and cut ends)
# chain: LPAPKNLVVSEVTEDSLRLSWTAPDAAFDSFLIQYQESEKVGEAINLTVPGSERSYDLTGLKPGTEYTVSIYGVLGSYVFEHDVMLPLSAEFTT
# B7: P114AR7P93-G8 (designed binder, not shown: small tags and cut ends)
# chain: LPAPKNLVVSRVTEDSARLSWTAPDAAFDSFWIRYFEFLGSGEAIVLTVPGSERSYDLTDLKPGTEYGVTINGVKGGRVSTPLSAIFTT
# B8: P114AR5P74-A5 (designed binder, not shown: small tags and cut ends)
# chain: LPAPKNLVVSRVTEDSARLSWTAPDAAFDSFWIRYDEVVVGGEAIVLTVPGSERSYDLTGLKPGTEYYVNILGVKGGSISVPLSAIFTT
# B9: P114AR7P92-F6 (designed binder, not shown: small tags and cut ends)
# chain: B7 chain with D60G, G68V, T70N, N72L, R78G, V79L, T81V
# B10: P114AR5P75-E9 (designed binder, not shown: small tags and cut ends)
# chain: B7 chain with W32F, F36D, G40R, D60G, G68W, N72L, R78L
# B11: P114AR7P93-H9 (designed binder, not shown: small tags and cut ends)
# chain: B7 chain with D60G, G68V, T70Q, N72I, R78H, V79I, T81L
# B12: P114AR7P94-E5 (designed binder, not shown: small tags and cut ends)
# chain: B7 chain with D60G, G68A, T70N, N72M, T81V
# B13: P114AR7P92-G8 (designed binder, not shown: small tags and cut ends)
# chain: B7 chain with W32V, D60G, G68V, T70Q, N72L, R78Y, V79I, T81I
# B14: P114AR7P94-A3 (designed binder, not shown: small tags and cut ends)
# chain: B7 chain with D60G, G68V, T70N, N72M, R78K, V79I, T81P
# B15: P114AR7P95-F10 (designed binder, not shown: small tags and cut ends)
# chain: B8 chain with D36F, V38F, V39T, V40T, G41A, Y68V, L72M, V81P
# Experiments:
# [1] = target: c-Met (hepatocyte growth factor receptor) on cells (human, UniProt P08581 25-1390); experiment: cell-based or functional assay
# [2] = target: T1, EGFR (epidermal growth factor receptor) on cells (human, UniProt P00533 25-1210); experiment: cell-based or functional assay
# [3] = target: T1, EGFR (epidermal growth factor receptor) …; experiment: A431 cell binding, anti-His-Alexa488 fluorescence
# Experimental: A431 cells were plated at 5,000/well in opaque black 96-well plates and allowed to attach overnight at 37° C., in a humidified 5% CO₂ atmosphere. […] Supernatant was removed and cells were washed 3 times with 150 μL/well of FACS stain buffer. Cells were incubated with 50 μL/well of anti-penta His-Alexa488 antibody conjugate (Qiagen) diluted 1:100 in FACS stain buffer for 20 minutes at room temperature. Cells were washed 3 times with 150 μL/well of FACS stain buffer, after which wells were filled with 100 μL of FACS stain buffer and read for fluorescence at 488 nm using an Acumen eX3 reader. Data were plotted as raw fluorescence signal against the logarithm of the FN3 domain molar concentration and fitted to a sigmoidal dose-response curve with variable slope using GraphPad Prism 4 (GraphPad Software) to calculate EC₅₀ values.
# [4] = target: Recombinant human c-Met Fc chimera (human) (UniProt P08581); experiment: HGF competition on coated c-Met Fc chimera, competitor biotinylated HGF
Binder,"IC50, inhibition of HGF-stimulated c-Met phosphorylation (Tyr1349) in NCI-H292 [1] [nM]","IC50, inhibition of EGF-stimulated EGFR phosphorylation (Tyr1173) in NCI-H292 [2] [nM]",IC50 [4] [nM],further results
B1,0.5,1.6,,
B2,0.4,1.4,,
B3,0.4,0.9,,
B4,0.5,1.4,,
B5,1.3,2.3,,
B6,,,,EC50 [3]: > 20000 nM
B7,,,1,
B8,,,5.2,
B9,,,2.2,
B10,,,51.9,
B11,,,2.9,
B12,,,0.7,
B13,,,1.6,
B14,,,0.2,
B15,,,1.4,
